The record followed here is patent publication US20180194862A1 (AbbVie / Abbott, published 2018).

Assay [1] has as its target T1, MSLN (Table 10-1).
T1 chain: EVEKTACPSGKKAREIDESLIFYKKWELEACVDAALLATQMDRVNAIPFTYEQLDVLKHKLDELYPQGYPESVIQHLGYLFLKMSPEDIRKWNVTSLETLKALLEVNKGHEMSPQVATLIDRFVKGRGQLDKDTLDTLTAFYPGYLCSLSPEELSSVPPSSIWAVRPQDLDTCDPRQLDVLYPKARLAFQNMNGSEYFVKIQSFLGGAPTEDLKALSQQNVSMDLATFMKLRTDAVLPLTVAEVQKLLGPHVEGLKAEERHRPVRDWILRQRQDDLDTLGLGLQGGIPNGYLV
The assay can be described thus: MSLN binding, format not stated.

For assay [2], the target named is T2, mouse CD40 (mouse, UniProt P27512 20-193, limits assumed).
T2 construct: also called murine CD40
T2 sequence (looked up): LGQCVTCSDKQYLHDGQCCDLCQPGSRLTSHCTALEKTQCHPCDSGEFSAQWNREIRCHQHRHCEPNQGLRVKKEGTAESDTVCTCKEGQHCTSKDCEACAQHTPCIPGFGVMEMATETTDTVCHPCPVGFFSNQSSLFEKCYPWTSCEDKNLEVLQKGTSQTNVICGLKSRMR
The assay can be described thus: CD40 binding, format not stated.

Assay [3] addresses T3, soluble form of the extracellular domain of cynomolgus (cyno) CD40 (Creative BioMart) (cynomolgus, UniProt G7PG38 21-193).
T3 construct: extracellular domain; also called Cynomolgus CD40
The assay can be described thus: SPR, fast kinetics. A general note: In SPR one partner is held on a chip, and binding of the other changes the refractive index at the surface.

Assay [4] deals with T4, human mesothelin (human, UniProt Q13421 296-580, limits assumed).
T4 construct: also called Human MSLN
The assay can be described thus: SPR.

Assay [5] has as its target T5, soluble form of the extracellular domain of human CD40 (Creative BioMart) (human, UniProt P25942 21-193).
T5 construct: Bought
The assay can be described thus: SPR.

In assay [6] the target is T6, human CD40 on cells (HEK293 stable transfectants, HEK-Blue CD40 cells, human B cells, monocytic cells, … (human, UniProt P25942 21-277)). The assay can be described thus: cell-based or functional assay.
T6 sequence (P25942 21-277 limits assumed): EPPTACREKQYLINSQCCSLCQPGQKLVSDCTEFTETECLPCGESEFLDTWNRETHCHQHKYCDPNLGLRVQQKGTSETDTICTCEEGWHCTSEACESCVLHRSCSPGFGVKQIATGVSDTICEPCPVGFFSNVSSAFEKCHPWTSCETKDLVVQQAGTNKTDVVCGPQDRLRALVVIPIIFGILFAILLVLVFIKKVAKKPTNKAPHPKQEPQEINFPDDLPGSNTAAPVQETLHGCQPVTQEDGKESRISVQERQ
For assay [7], the target named is T7, cynomolgus mesothelin (cynomolgus).
T7 construct: also called cynoMSLN; Cyno MSLN
The assay can be described thus: SPR.

For assay [8], the target named is T3, soluble form of the extracellular …. The assay can be described thus: SPR.
The target of assay [9] is T4, human mesothelin. The assay can be described thus: SPR. The source holds these as a separate data set.
In assay [10] the target is T5, soluble form of the extracellular …. Description: SPR. The source holds these as a separate data set.
The target in assay [11] is T7, cynomolgus mesothelin. Description: SPR. This is another data set of the same source.
The target of assay [12] is T6, human CD40 on cells (HEK293 stable …). The assay can be described thus: FACS, HEK293 transfectants. Background: In flow cytometry, cells or beads pass a laser one at a time.
Assay [13] addresses T8, dog CD40 (dog, UniProt Q7YRL5 21-194, limits assumed).
T8 sequence (looked up): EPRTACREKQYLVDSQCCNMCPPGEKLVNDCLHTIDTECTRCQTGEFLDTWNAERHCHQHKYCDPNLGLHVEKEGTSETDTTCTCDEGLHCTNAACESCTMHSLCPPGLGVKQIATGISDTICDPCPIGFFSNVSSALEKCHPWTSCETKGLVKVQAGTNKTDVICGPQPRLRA
Description: FACS.

For assay [14], the target named is T2, mouse CD40. The assay can be described thus: FACS.

Read-outs that look alike come from different tables or passages of the source.

A word on the EC50: it is the concentration at which the effect is half-maximal. The low end stands for higher potency in that assay, the high end for lower potency in that assay. The Kd is a measure of binding affinity in units of concentration. The koff is a measure of how fast the partners let go of each other. The low end stands for a long-lived complex, the high end for a short-lived complex. By kon is commonly meant the rate constant with which the complex forms. Lower therefore signals slow association.

T5 sequence (P25942 21-193 limits assumed): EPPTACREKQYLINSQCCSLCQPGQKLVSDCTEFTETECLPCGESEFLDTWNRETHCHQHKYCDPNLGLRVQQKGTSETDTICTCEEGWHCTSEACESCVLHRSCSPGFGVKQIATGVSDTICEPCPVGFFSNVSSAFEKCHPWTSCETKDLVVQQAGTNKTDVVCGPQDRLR

B1: LB-1 (bispecific antibody, mouse IgG1)
chain: EVQLVESGGGLVQPGRSLKLSCAASGFTFSNYDMAWVRQAPTKGLEWVASISPSGGRTYYRDSVKGRFTVSRDNAKSTLYLQMDSLRSEDTATYYCARHDGSYFDYWGQGVMVTVSSDLSGGGGSGGGGSGGGGSGGGGSTGDTVLTQSPALAVSPGERVTISCRASESVSTLMHWYQQKPGQQPKLLIYLASHLESGVPARFSGSGSGTDFTLTIDPVEADDTATYYCQESWNDPWTFGGGTKLELKRLEVPRDSGSKPCICTVPEVSSVFIFPPKPKDVLTITLTPKVTCVVVDISKDDPEVQFSWFVDDVEVHTAQTQPREEQFNSTFRSVSELPIMHQDWLNGKEFKCRVNSAAFPAPIEKTISKTKGRPKAPQVYTIPPPKEQMAKDKVSLTCMITDFFPEDITVEWQWNGQPAENYKNTQPIMDTDGSYFVYSKLNVQKSNWEAGNTFTCSVLHEGLHNHHTEKSLSHSPGKVDGASSPVNVSSPSVQDIQVQLVQSGAEVKKPGASVKVSCKASGYTFTGNYINWVRQAPGQGLEWMGIINPTKGWTLYAQKFQGRVTMTRDTSISTAYMELSSLRSEDTAVYYCARWHHGTWIFDYWGQGTLVTVSSDLSGGGGSGGGGSGGGGSGGGGSTGDIVLTQPPSVSGAPGQRVTISCSGSSSNIGSNYVSWYQQLPGTAPKLLIYNDNQRPSGVPDRFSGSKSGTSASLAITGLQSEDEADYYCSTYDRRTFSVFGGGTKLTVLG
notes: 1C10 scFv (VH→VL), murine IgG1 hinge-CH2-CH3, MOR06626 scFv (VH→VL); also called mouse bispecific formula (I) protein LB-1
Take B1: the values for the EC50 in assay [1] and in [2] were 1.39 µg/mL and 2.75 µg/mL, respectively.

B2: CF1 (bispecific antibody, human IgG1, lambda)
heavy: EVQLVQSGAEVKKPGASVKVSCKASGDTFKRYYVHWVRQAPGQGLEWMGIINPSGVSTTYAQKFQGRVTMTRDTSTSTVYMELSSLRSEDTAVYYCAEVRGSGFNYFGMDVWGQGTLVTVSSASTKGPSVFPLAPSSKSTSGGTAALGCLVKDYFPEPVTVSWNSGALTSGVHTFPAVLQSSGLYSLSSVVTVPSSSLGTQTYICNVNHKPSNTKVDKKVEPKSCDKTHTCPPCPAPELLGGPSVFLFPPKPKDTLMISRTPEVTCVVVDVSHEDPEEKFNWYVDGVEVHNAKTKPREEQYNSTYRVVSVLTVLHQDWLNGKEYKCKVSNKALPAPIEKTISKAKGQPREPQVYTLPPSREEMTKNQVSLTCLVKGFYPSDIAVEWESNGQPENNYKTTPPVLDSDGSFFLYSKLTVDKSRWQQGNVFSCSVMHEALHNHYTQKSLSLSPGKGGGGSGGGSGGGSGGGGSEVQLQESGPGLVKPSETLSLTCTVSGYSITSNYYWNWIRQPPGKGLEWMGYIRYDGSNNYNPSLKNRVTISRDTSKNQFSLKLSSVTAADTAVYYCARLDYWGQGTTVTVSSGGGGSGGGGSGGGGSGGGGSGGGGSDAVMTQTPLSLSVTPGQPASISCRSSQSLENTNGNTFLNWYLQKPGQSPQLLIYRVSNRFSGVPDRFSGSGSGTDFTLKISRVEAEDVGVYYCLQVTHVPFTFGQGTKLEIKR
light: SYELTQPPSVSVSPGQTASITCSGDKLGDKYASWYQQKPGQSPVLVIYQDNRRPSGIPERFSGSNSGNTATLTISGTQAMDEADYYCQAWDSDTYVFGTGTKVTVLGQPKAAPSVTLFPPSSEELQANKATLVCLISDFYPGAVTVAWKADSSPVKAGVETTTPSKQSNNKYAASSYLSLTPEQWKSHRSYSCQVTHEGSTVEKTVAPTECS
notes: IgG-scFv: HuAM15 Fab, IgG1 V273E, CD40 scFv
In the case of B2, the Kd in assay [3] is 150 nM; in assay [4], 0.47 nM; in assay [5], 390 nM; in assay [7], 0.23 nM; in assay [8], less than 150 nM; in assay [9], less than 400 nM. Further, the Kd in [10] was less than 400 nM; in assay [11], not above 0.29 nM. The koff in assay [4] was found to be 2.4e-05 s⁻¹; in assay [5], 0.26 s⁻¹; in assay [7], 7.1e-05 s⁻¹. Besides, the kon turned out to be 52000 M⁻¹ s⁻¹ in assay [4], 680000 M⁻¹ s⁻¹ in assay [5] and 310000 M⁻¹ s⁻¹ in assay [7]. Further, the “Max. IL-12p70, dendritic cells with cell-surface mesothelin” value in assay [6] worked out at 100 pg/mL.

B3: huAb8-2 (antibody, human IgG1, V domains shown)
VH: EVQLVQSGAEVKKPGSSVKVSCKASGYTFTDYYINWVRQAPGQGLEWIGWIFPGSGSVYSNEQFKGRATLTVDRSTSTAYMELSSLRSEDTAVYFCASSLGKFAYWGQGTLVTVSS
VL: DIQMTQSPSSLSASVGDRVTITCKASQSVVTAVAWYQQKPGKSPKLLIYSASNRYTGVPSRFSGSGSGTDFTLTISSLQPEDFATYFCQQYSSYPYTFGGGTKVEIK
notes: human IgG1, kappa
Consider B3, for which the binding result in assay [12] is “binds”; in [13] it was “no binding”; in assay [14] it was “no binding”.
